These results are taken from patent US20250276075A1, “METHODS OF TREATING AXL-EXPRESSING CANCERS WITH ANTI-AXL ANTIBODIES, ANTIBODY FRAGMENTS AND THEIR IMMUNOCONJUGATES” (BIOATLA, INC., priority 2020, published 2025).

In assay [1] the target is Axl (UniProt P30530). The assay is described as follows: ELISA, 1:3 dilution. Background: An ELISA detects its analyte on a solid surface through an enzyme-linked reagent.
For assay [2], the target named is Axl (UniProt P30530). The assay is described as follows: ELISA, 1:9 dilution.
The target of assay [3] is T1, Axl (Homo sapiens, UniProt P30530).
T1 sequence (P30530 26-451 limits assumed): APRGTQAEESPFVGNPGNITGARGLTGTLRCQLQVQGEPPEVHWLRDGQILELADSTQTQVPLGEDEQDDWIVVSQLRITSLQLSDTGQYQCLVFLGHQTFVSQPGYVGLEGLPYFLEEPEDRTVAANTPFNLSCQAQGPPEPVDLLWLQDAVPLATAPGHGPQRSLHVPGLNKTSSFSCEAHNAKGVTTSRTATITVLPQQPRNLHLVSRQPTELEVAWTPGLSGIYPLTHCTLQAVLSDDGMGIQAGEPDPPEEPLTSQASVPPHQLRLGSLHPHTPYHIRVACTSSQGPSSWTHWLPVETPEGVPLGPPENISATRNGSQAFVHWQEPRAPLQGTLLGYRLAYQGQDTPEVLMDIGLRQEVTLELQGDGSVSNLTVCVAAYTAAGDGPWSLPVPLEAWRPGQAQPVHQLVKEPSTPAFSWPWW
As to the kind of experiment: Affinity ELISA of CPE mutant antibodies for binding to Axl at pH 6.0 over pH 7.4. The settings on record: for Affinity ELISA CPE mutant ratio (1:3, pH 6.0/7.4): 1:3 dilution; for Affinity ELISA CPE mutant ratio (1:9, pH 6.0/7.4): 1:9 dilution. The text has this: The DNA encoding the wild-type antibody was evolved to generate a mutant antibody library using Comprehensive Positional Evolution (CPE), which each position in the template antibody is randomized one at a time. Each mutant antibody in the library has only one single point mutation. The mutant antibodies in the library were generated by simultaneously screening for selective binding affinity to Axl at pH 6.0 over pH 7.4 by ELISA. Two mutant antibody dilutions were used: 1:3 and 1:9 dilutions. The mutant antibodies that have at least 1.5 ratio of binding affinity at pH 6.0 to at pH 7.4 under either 1:3 or 1:9 dilution are selected as conditionally active antibodies, with the single point mutations indicated in each of the heavy chain and light chain variable region (Tables 1 and 2).
A wild-type antibody to Axl was selected as the template antibody (with a heavy chain variable region of 063-hum10F10-HC in FIG. 1A and a light chain variable region of […]). The DNA encoding the wild-type antibody was evolved to generate a mutant antibody library using Comprehensive Positional Evolution (CPE), a method by which each position in the template antibody is randomized one at a time. Each mutant antibody in the library has only one single point mutation. The mutant antibodies in the library were generated by simultaneously screening for selective binding affinity to Axl at pH 6.0 over pH 7.4 as determined by ELISA.
Simultaneously, the expression level of the mutant antibodies was also optimized for the purpose of higher fields in a manufacturing process. The screening was done in serum using a FLAG tag because there were human antibodies in the serum which might cause false positives for the screening. The screening buffer was a carbonate buffer (Krebs buffer with ringer-standard buffer but different from PBS). […] Some of the selected mutant antibodies (scFv) were represented in FIG. 2 with their higher activity at pH 6.0 than at pH 7.4, while their activity ratios between pH 6.0 to pH 7.4 were at least 11 fold (FIG. 3).

Setting [4] is: light chain variable region mutants.
Where [5] appears, read: heavy chain variable region mutants.

B1: LC-H091C (antibody, V domains shown)
VH: EVQLVQSGAEVKKPGATVKISCKVSGYSFTGHTMNWIRQPPGKGLEWIGLIKPSNGGTSYNQKFKGRVTISADKSISTAYLQWSSLKASDTAMYYCAHGHYESYFAMDYWGQGTLVTVSS
VL: DIQMTQSPSSLSASVGDRVTITCKASQDVSSAVAWYQQKPGQAPRLLIYWASTRHTGVPSRFSGSGSGTEFTLTISSLQPDDFATYYCQECFSTPLTFGQGTKVEIK
With B1, the Affinity ELISA CPE mutant ratio (1:3, pH 6.0/7.4) in assay [1] came out at 4; in assay [3] (setting [4]) it was 4.003. In addition, the figures for the Affinity ELISA CPE mutant ratio (1:9, pH 6.0/7.4) in assay [2] and in assay [3] (setting [4]) were 3.02 and 3.025, respectively.

B2: LC-H091L (antibody, V domains shown)
VH: EVQLVQSGAEVKKPGATVKISCKVSGYSFTGHTMNWIRQPPGKGLEWIGLIKPSNGGTSYNQKFKGRVTISADKSISTAYLQWSSLKASDTAMYYCAHGHYESYFAMDYWGQGTLVTVSS
VL: DIQMTQSPSSLSASVGDRVTITCKASQDVSSAVAWYQQKPGQAPRLLIYWASTRHTGVPSRFSGSGSGTEFTLTISSLQPDDFATYYCQELFSTPLTFGQGTKVEIK
With B2, the values for the Affinity ELISA CPE mutant ratio (1:3, pH 6.0/7.4) in assay [1] and in assay [3] (setting [4]) were 2.8 and 2.798, respectively. Further, the Affinity ELISA CPE mutant ratio (1:9, pH 6.0/7.4) in assay [2] is 2.08; in assay [3] (setting [4]), 2.081.

B3: LC-L096G (antibody, V domains shown)
VH: EVQLVQSGAEVKKPGATVKISCKVSGYSFTGHTMNWIRQPPGKGLEWIGLIKPSNGGTSYNQKFKGRVTISADKSISTAYLQWSSLKASDTAMYYCAHGHYESYFAMDYWGQGTLVTVSS
VL: DIQMTQSPSSLSASVGDRVTITCKASQDVSSAVAWYQQKPGQAPRLLIYWASTRHTGVPSRFSGSGSGTEFTLTISSLQPDDFATYYCQEHFSTPGTFGQGTKVEIK
Regarding B3, the values for the Affinity ELISA CPE mutant ratio (1:3, pH 6.0/7.4) in assay [1] and in assay [3] (setting [4]) were 2.17 and 2.165, respectively. In addition, the Affinity ELISA CPE mutant ratio (1:9, pH 6.0/7.4) in assay [2] was determined as 2.44; in assay [3] (setting [4]) it was 2.436.

B4: HC-S059I (antibody, V domains shown)
VH: EVQLVQSGAEVKKPGATVKISCKVSGYSFTGHTMNWIRQPPGKGLEWIGLIKPSNGGTIYNQKFKGRVTISADKSISTAYLQWSSLKASDTAMYYCAHGHYESYFAMDYWGQGTLVTVSS
VL: DIQMTQSPSSLSASVGDRVTITCKASQDVSSAVAWYQQKPGQAPRLLIYWASTRHTGVPSRFSGSGSGTEFTLTISSLQPDDFATYYCQEHFSTPLTFGQGTKVEIK
Regarding B4, the Affinity ELISA CPE mutant ratio (1:3, pH 6.0/7.4) is 30.5 in assay [1] and 30.492 in assay [3] (setting [5]). Further, the Affinity ELISA CPE mutant ratio (1:9, pH 6.0/7.4) in assay [2] was 2.06; in assay [3] (setting [5]) it was 2.055.

B5: LC-H091F (antibody, V domains shown)
VH: EVQLVQSGAEVKKPGATVKISCKVSGYSFTGHTMNWIRQPPGKGLEWIGLIKPSNGGTSYNQKFKGRVTISADKSISTAYLQWSSLKASDTAMYYCAHGHYESYFAMDYWGQGTLVTVSS
VL: DIQMTQSPSSLSASVGDRVTITCKASQDVSSAVAWYQQKPGQAPRLLIYWASTRHTGVPSRFSGSGSGTEFTLTISSLQPDDFATYYCQEFFSTPLTFGQGTKVEIK
Turning to B5, the Affinity ELISA CPE mutant ratio (1:3, pH 6.0/7.4) in assay [1] is 1.6; in assay [3] (setting [4]), 1.603. For the same molecule, the Affinity ELISA CPE mutant ratio (1:9, pH 6.0/7.4) was 2.12 in assay [2] and 2.116 in assay [3] (setting [4]).

B6: LC-P095D (antibody, V domains shown)
VH: EVQLVQSGAEVKKPGATVKISCKVSGYSFTGHTMNWIRQPPGKGLEWIGLIKPSNGGTSYNQKFKGRVTISADKSISTAYLQWSSLKASDTAMYYCAHGHYESYFAMDYWGQGTLVTVSS
VL: DIQMTQSPSSLSASVGDRVTITCKASQDVSSAVAWYQQKPGQAPRLLIYWASTRHTGVPSRFSGSGSGTEFTLTISSLQPDDFATYYCQEHFSTDLTFGQGTKVEIK
As to B6, the figures for the Affinity ELISA CPE mutant ratio (1:3, pH 6.0/7.4) in assay [1] and in assay [3] (setting [4]) were 3.95 and 3.949, respectively. In addition, the Affinity ELISA CPE mutant ratio (1:9, pH 6.0/7.4) in assay [2] is 2.89; in assay [3] (setting [4]), 2.889.

B7: LC-P095E (antibody, V domains shown)
VH: EVQLVQSGAEVKKPGATVKISCKVSGYSFTGHTMNWIRQPPGKGLEWIGLIKPSNGGTSYNQKFKGRVTISADKSISTAYLQWSSLKASDTAMYYCAHGHYESYFAMDYWGQGTLVTVSS
VL: DIQMTQSPSSLSASVGDRVTITCKASQDVSSAVAWYQQKPGQAPRLLIYWASTRHTGVPSRFSGSGSGTEFTLTISSLQPDDFATYYCQEHFSTELTFGQGTKVEIK
Consider B7, for which the results for the Affinity ELISA CPE mutant ratio (1:3, pH 6.0/7.4) in assay [1] and in assay [3] (setting [4]) were 7.12 and 7.121, respectively. In addition, the Affinity ELISA CPE mutant ratio (1:9, pH 6.0/7.4) in assay [2] was found to be 7.51; in assay [3] (setting [4]) it was 7.511.

B8: LC-H091Q (antibody, V domains shown)
VH: EVQLVQSGAEVKKPGATVKISCKVSGYSFTGHTMNWIRQPPGKGLEWIGLIKPSNGGTSYNQKFKGRVTISADKSISTAYLQWSSLKASDTAMYYCAHGHYESYFAMDYWGQGTLVTVSS
VL: DIQMTQSPSSLSASVGDRVTITCKASQDVSSAVAWYQQKPGQAPRLLIYWASTRHTGVPSRFSGSGSGTEFTLTISSLQPDDFATYYCQEQFSTPLTFGQGTKVEIK
Regarding B8, the results for the Affinity ELISA CPE mutant ratio (1:3, pH 6.0/7.4) in assay [1] and in assay [3] (setting [4]) were 1.77 and 1.770, respectively. Besides, the Affinity ELISA CPE mutant ratio (1:9, pH 6.0/7.4) in assay [2] came out at 2.01; in assay [3] (setting [4]), 2.010.

B9: LC-H091I (antibody, V domains shown)
VH: EVQLVQSGAEVKKPGATVKISCKVSGYSFTGHTMNWIRQPPGKGLEWIGLIKPSNGGTSYNQKFKGRVTISADKSISTAYLQWSSLKASDTAMYYCAHGHYESYFAMDYWGQGTLVTVSS
VL: DIQMTQSPSSLSASVGDRVTITCKASQDVSSAVAWYQQKPGQAPRLLIYWASTRHTGVPSRFSGSGSGTEFTLTISSLQPDDFATYYCQEIFSTPLTFGQGTKVEIK
B9: the Affinity ELISA CPE mutant ratio (1:3, pH 6.0/7.4) in assay [1] amounted to 1.55; in assay [3] (setting [4]), 1.550. Moreover, the Affinity ELISA CPE mutant ratio (1:9, pH 6.0/7.4) in assay [2] worked out at 2.15; in assay [3] (setting [4]), 2.154.

B10: LC-P095K (antibody, V domains shown)
VH: EVQLVQSGAEVKKPGATVKISCKVSGYSFTGHTMNWIRQPPGKGLEWIGLIKPSNGGTSYNQKFKGRVTISADKSISTAYLQWSSLKASDTAMYYCAHGHYESYFAMDYWGQGTLVTVSS
VL: DIQMTQSPSSLSASVGDRVTITCKASQDVSSAVAWYQQKPGQAPRLLIYWASTRHTGVPSRFSGSGSGTEFTLTISSLQPDDFATYYCQEHFSTKLTFGQGTKVEIK
For the molecule B10, the figures for the Affinity ELISA CPE mutant ratio (1:3, pH 6.0/7.4) in assay [1] and in assay [3] (setting [4]) were 3.84 and 3.840, respectively. Moreover, the values for the Affinity ELISA CPE mutant ratio (1:9, pH 6.0/7.4) in assay [2] and in assay [3] (setting [4]) were 3.47 and 3.468, respectively.

B11: LC-P095S (antibody, V domains shown)
VH: EVQLVQSGAEVKKPGATVKISCKVSGYSFTGHTMNWIRQPPGKGLEWIGLIKPSNGGTSYNQKFKGRVTISADKSISTAYLQWSSLKASDTAMYYCAHGHYESYFAMDYWGQGTLVTVSS
VL: DIQMTQSPSSLSASVGDRVTITCKASQDVSSAVAWYQQKPGQAPRLLIYWASTRHTGVPSRFSGSGSGTEFTLTISSLQPDDFATYYCQEHFSTSLTFGQGTKVEIK
On to B11, for which the Affinity ELISA CPE mutant ratio (1:3, pH 6.0/7.4) in assay [1] worked out at 2.84; in assay [3] (setting [4]), 2.841. Moreover, the Affinity ELISA CPE mutant ratio (1:9, pH 6.0/7.4) in assay [2] came out at 3.51; in assay [3] (setting [4]), 3.512.

B12: LC-P095H (antibody, V domains shown)
VH: EVQLVQSGAEVKKPGATVKISCKVSGYSFTGHTMNWIRQPPGKGLEWIGLIKPSNGGTSYNQKFKGRVTISADKSISTAYLQWSSLKASDTAMYYCAHGHYESYFAMDYWGQGTLVTVSS
VL: DIQMTQSPSSLSASVGDRVTITCKASQDVSSAVAWYQQKPGQAPRLLIYWASTRHTGVPSRFSGSGSGTEFTLTISSLQPDDFATYYCQEHFSTHLTFGQGTKVEIK
Regarding B12, the Affinity ELISA CPE mutant ratio (1:3, pH 6.0/7.4) is 2.5 in assay [1] and 2.504 in assay [3] (setting [4]). Further, the figures for the Affinity ELISA CPE mutant ratio (1:9, pH 6.0/7.4) in assay [2] and in assay [3] (setting [4]) were 2.75 and 2.754, respectively.
